Reference: patent publication US20170044234A1 (INSERM INSTITUT NATIONAL DE LA SANTE ET DE LA RECHERCHE …, published 2017)
Ends that are not written are not given here.

T1: Myc-tagged full-length human PLCγ1 (human, UniProt P19174 1-1290)
T1 construct: Transfected into HEK cells; also called wild type PLCγ1; phospholipase Cγ1; not shown: Myc tag of the pTriEx-4 construct
T1 sequence (looked up): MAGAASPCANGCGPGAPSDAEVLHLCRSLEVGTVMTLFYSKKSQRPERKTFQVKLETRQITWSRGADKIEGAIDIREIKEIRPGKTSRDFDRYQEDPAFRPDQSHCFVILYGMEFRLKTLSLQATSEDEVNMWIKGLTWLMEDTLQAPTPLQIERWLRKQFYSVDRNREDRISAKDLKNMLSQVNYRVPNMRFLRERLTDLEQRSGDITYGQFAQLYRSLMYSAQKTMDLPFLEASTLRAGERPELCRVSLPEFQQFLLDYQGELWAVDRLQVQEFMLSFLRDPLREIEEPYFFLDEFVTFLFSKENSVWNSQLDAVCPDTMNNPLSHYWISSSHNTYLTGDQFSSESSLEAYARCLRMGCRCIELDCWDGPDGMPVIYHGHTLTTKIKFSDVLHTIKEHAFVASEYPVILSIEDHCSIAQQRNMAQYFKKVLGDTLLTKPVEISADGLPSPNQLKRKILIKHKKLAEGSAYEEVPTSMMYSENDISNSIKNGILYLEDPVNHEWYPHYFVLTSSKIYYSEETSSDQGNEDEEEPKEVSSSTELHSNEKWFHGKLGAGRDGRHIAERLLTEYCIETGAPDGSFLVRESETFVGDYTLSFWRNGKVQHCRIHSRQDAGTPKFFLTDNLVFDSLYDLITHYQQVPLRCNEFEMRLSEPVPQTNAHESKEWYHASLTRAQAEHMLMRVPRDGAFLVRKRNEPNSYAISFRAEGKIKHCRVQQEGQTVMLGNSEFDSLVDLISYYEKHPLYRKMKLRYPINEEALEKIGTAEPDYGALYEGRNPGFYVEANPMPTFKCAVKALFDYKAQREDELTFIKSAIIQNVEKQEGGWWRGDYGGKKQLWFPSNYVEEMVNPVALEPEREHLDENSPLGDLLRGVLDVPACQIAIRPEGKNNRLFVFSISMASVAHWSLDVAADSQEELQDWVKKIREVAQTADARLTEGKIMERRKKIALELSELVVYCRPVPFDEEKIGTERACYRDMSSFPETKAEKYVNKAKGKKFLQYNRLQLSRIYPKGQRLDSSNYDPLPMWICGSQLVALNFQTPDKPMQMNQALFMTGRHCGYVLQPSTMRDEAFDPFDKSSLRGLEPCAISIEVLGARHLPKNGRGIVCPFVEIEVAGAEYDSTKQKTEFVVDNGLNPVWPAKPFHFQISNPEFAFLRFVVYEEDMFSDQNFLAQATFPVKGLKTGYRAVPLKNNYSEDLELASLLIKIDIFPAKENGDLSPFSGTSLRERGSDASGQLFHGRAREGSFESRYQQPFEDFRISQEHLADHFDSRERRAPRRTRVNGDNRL

T2: GFP-fused CD95^1-210 (human, UniProt P25445 17-226)
T2 construct: also called CD95 construct devoid of DD; not shown: GFP of vector pEGFP-N1 (Clontech), fused C-terminally
T2 sequence: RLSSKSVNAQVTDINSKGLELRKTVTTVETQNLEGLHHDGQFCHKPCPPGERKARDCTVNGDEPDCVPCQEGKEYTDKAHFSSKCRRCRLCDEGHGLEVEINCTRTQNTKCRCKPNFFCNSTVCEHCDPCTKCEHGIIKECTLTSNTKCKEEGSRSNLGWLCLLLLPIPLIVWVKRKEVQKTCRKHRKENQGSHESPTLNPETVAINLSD

B1: CD95^(175-210)-mCherry (other)
chain: KRKEVQKTCRKHRKENQGSHESPTLNPETVAINLSD-mCherry
modifications: also: mCherry fused C-terminally, junction not given here
notes: Expressed in HEK cells together with PLCγ1; also called CID-mCherry; CID-mCHERRY; not shown: mCherry of vector pmCHERRY-N1, fused C-terminally
B2: GFP-fused CD95^1-175 (receptor)
chain: RLSSKSVNAQVTDINSKGLELRKTVTTVETQNLEGLHHDGQFCHKPCPPGERKARDCTVNGDEPDCVPCQEGKEYTDKAHFSSKCRRCRLCDEGHGLEVEINCTRTQNTKCRCKPNFFCNSTVCEHCDPCTKCEHGIIKECTLTSNTKCKEEGSRSNLGWLCLLLLPIPLIVWVK
notes: also called CD95 devoid of the entire intracellular domain; not shown: GFP of vector pEGFP-N1 (Clontech), fused C-terminally
B3: adaptor protein FADD (other, UniProt Q13158 1-208, looked up)
chain: MDPFLVLLHSVSSSLSSSELTELKFLCLGRVGKRKLERVQSGLDLFSMLLEQNDLEPGHTELLRELLASLRRHDLLRRVDDFEAGAAAGAAPGEEDLCAAFNVICDNVGKDWRRLARQLKVSDTKIDSIEDRYPRNLTERVRESLRIWKNTEKENATVAHLVGALRSCQMNLVADLVQEVQQARDLQNRSGAMSPMSWNSDASTSEAS
notes: Detected with an anti-human FADD mAb (clone 1); also called Fas-associated death domain protein
B4: neutralizing anti-CD95L mAb (Nok1) (antibody, from another filing, V domains shown)
VH: VQLQESGPELVKPGASVKISCKASGYAFSSSWMNWVKQRPGKGLEWIGRIYPGDGDTNDNGKFKGKATLTADKSSSTAYMQLSSLTSEDSAVYFCARSYYYDGSPWFTYWGQGTTVTVSS
VL: DIQMTQSPSSLSASLGDRVTISCRASQDISNYLNWYQQKPDGTVKLLIYYTSRLHSGVPSRFSGSGSGTDYSLTISNLEPEDIATYFCQQYSEFPWTFGGGTKLEIKR

How the values were obtained:
[1] = target: T1, Myc-tagged full-length human PLCγ1; test: PLCγ1 immunoprecipitation from HEK cells co-transfected with PLCγ1 and CID-mCherry, immunoblot
Method: (§1) The immune complex was resolved by SDS-PAGE, and the indicated immunoblotting was performed. Total lysates were loaded as a control. […] The immune complex was resolved by SDS/PAGE, and the indicated immunoblottings were performed. Total lysates were loaded as a control. […] The immune complex was resolved by SDS-PAGE, and the indicated immunoblotting was performed. Total lysates were loaded as a control. […] The immune complex was resolved by SDS-PAGE, and the indicated immunoblotting was performed. Total lysates were loaded as a control. E. Jurkat and CEM were loaded with FuraPE3-AM (1 μM), pretreated for 1 h with 10 μM of TAT-control or TAT-CID and then stimulated with 100 ng/ml of cl-CD95L (black arrow). Ratio images were taken every 10 s and were normalized vs pre-stimulated values. F. Human PBLs from healthy donors were loaded with furaPE3-AM (1 μM) pretreated for 1 h with 10 μM of TAT-control or TAT-CID or with the IP3R inhibitor Xestospongin C (positive control, 1 μM, 1 h) and then stimulated with 100 ng/ml of cl-CD95L (black arrow). Ratio values (R) were normalized vs pre-stimulated values (R0). Data represent mean±SD of R/R₀ measured in n cells.

[2] = target: T1, Myc-tagged full-length human PLCγ1; test: co-immunoprecipitation with CD95 from transfected HEK cells stimulated with CD95L, immunoblot
Method: as §1

adaptor protein FADD = target: B3; test: as above
Method: as §1

GFP-fused CD95^1-210 = target: T2, GFP-fused CD95^1-210; test: as above
Method: as §1

[3] = target: serum CD95L of SLE patients (soluble, homotrimeric) (human) (UniProt P48023); test: cell-based or functional assay
serum CD95L of SLE patients (soluble, homotrimeric) (human), sequence (P48023 130-281 limits assumed): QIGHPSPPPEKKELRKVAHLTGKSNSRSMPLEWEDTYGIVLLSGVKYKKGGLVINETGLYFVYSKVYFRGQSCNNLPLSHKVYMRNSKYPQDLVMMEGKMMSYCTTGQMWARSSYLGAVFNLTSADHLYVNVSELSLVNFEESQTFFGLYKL

B1
binding result [1]: binds

B2
binding result [2]: no binding | binding result (adaptor protein FADD): no binding

B3
binding result (GFP-fused CD95^1-210): no binding

B4
T-cell transmigration induced by fractions 76-78 [3]: < 50%
